These results are taken from the Immune Epitope Database (IEDB).

Usually Kd stands for the free concentration of one partner at which half of the binding sites on the other are occupied at equilibrium, for simple one-to-one binding.

Test [1] addresses HLA-A*23:01. The test is described as follows: IEDB peptide-MHC binding, purified MHC/competitive/radioactivity; filed as Kd, often an IC50 or EC50 that approximates it; ≥ and ≤ were set here for values at or beyond the usual limits of such assays.
The target of test [2] is HLA-A*30:02. Described as above.
Test [3] has as its target HLA-A*29:02. The test is described as above.
For test [4], the target named is HLA-A*01:01. The test is described as above.
Test [5] deals with HLA-A*24:02. The description is as above.
The target of test [6] is HLA-A*26:01. The test is described as above.
For test [7], the target named is HLA-A*31:01. The description is as above. The settings on record: source organism: Triticum aestivum.
The target of test [8] is HLA-A*03:01. The test is described as above. The settings on record: source organism: Triticum aestivum.
In test [9] the target is HLA-A*11:01. Described as above. The settings on record: source organism: Triticum aestivum.
Test [10] concerns the target HLA-A*33:01. Described as above. The settings on record: source organism: Triticum aestivum.
Test [11] deals with HLA-A*68:01. Described as above. The settings on record: source organism: Triticum aestivum.
Test [12] addresses HLA-B*07:02. Described as above.
Test [13] deals with HLA-A*26:01. The test is described as follows: IEDB peptide-MHC binding, purified MHC/direct/fluorescence; filed as Kd, often an IC50 or EC50 that approximates it; ≥ and ≤ were set here for values at or beyond the usual limits of such assays.
Test [14] deals with HLA-A*02:03. The test is described as follows: IEDB peptide-MHC binding, purified MHC/competitive/radioactivity; filed as Kd, often an IC50 or EC50 that approximates it; ≥ and ≤ were set here for values at or beyond the usual limits of such assays.
For test [15], the target named is HLA-B*51:01. The test is described as above.
In test [16] the target is HLA-A*01:01. Kind of test: IEDB peptide-MHC binding, purified MHC/direct/fluorescence; filed as Kd, often an IC50 or EC50 that approximates it; ≥ and ≤ were set here for values at or beyond the usual limits of such assays.
The target in test [17] is HLA-B*15:01. The test is described as above. The settings on record: source organism: SARS-CoV1.
For test [18], the target named is HLA-A*03:01. Described as above. The settings on record: source organism: SARS-CoV1.
Test [19] has as its target HLA-A*11:01. The test is described as above. The settings on record: source organism: SARS-CoV1.
Test [20] addresses HLA-B*58:01. The description is as above. The settings on record: source organism: SARS-CoV1.
Test [21] has as its target HLA-A*02:06. The test is described as follows: IEDB peptide-MHC binding, purified MHC/competitive/radioactivity; filed as Kd, often an IC50 or EC50 that approximates it; ≥ and ≤ were set here for values at or beyond the usual limits of such assays. The settings on record: source organism: SARS coronavirus Tor2.
Test [22] has as its target HLA-A*02:02. Described as above. The settings on record: source organism: SARS coronavirus Tor2.
Setting [23] is: source organism: SARS coronavirus Tor2.
Setting [24] is: source organism: Triticum aestivum.
The mark [25] stands for this setting: source organism: Mammarenavirus guanaritoense.
The mark [26] stands for this setting: source organism: Dengue virus 2 Jamaica/1409/1983.
Setting [27] is: source organism: Dengue virus 4 Philippines/H241/1956.
[28] abbreviates: source organism: Mammarenavirus brazilense.
Setting [29] is: source organism: Dengue virus 1 Brazil/97-11/1997.
The mark [30] stands for this setting: source organism: Mycobacterium avium 104.

Regarding AFEKMVSLL, the Kd in test [1] (setting [23]) was 8390 nM; in [2] (setting [23]) it was at least 81100 nM; in [3] (setting [23]), at least 27400 nM; in test [4] (setting [23]), at least 78100 nM; in test [5] (setting [23]), 11500 nM; in test [6] (setting [23]), at least 74400 nM.

In the case of AFLIGANYL, the Kd in test [1] (setting [23]) was at least 55300 nM; in test [2] (setting [23]), at least 78900 nM; in [3] (setting [23]) it was at least 26600 nM; in test [4] (setting [23]) it was at least 73000 nM; in [5] (setting [23]) it was at least 45900 nM; in test [6] (setting [23]), at least 77900 nM.

With AMCNVYIPPY, the Kd in test [1] (setting [24]) was 11500 nM; in test [2] (setting [24]), 874 nM; in [7], 224 nM; in test [8], 152 nM; in test [3] (setting [24]) it was 13 nM; in test [9] it was 136 nM. Further, the Kd in test [10] was 2600 nM; in test [4] (setting [24]), 83.5 nM; in test [11], 921 nM; in [5] (setting [24]), at least 28300 nM; in test [6] (setting [24]) it was 854 nM.

Take AWPLIVTAL: the Kd in [1] (setting [23]) is at least 49000 nM; in test [2] (setting [23]) it was at least 37900 nM; in test [3] (setting [23]), at least 75000 nM; in test [4] (setting [23]), at least 23000 nM; in test [5] (setting [23]), at least 77600 nM; in [6] (setting [23]), 17700 nM.

For the sequence CLERWMLVA, the Kd was at least 77700 nM in test [1] (setting [25]); 14900 nM in test [2] (setting [25]); at least 78900 nM in [3] (setting [25]); 153 nM in [4] (setting [25]); at least 77500 nM in [5] (setting [25]); at least 77900 nM in test [6] (setting [25]).

On to CTLSEQLDY, for which the Kd in test [1] (setting [23]) is at least 77800 nM; in [2] (setting [23]), 27.6 nM; in test [3] (setting [23]), 1.05 nM; in test [4] (setting [23]), 8.53 nM; in test [5] (setting [23]), at least 77600 nM; in test [6] (setting [23]) it was 842 nM.

For CYGVSATKL, the Kd in test [1] (setting [23]) was 12000 nM; in [2] (setting [23]), at least 81100 nM; in [3] (setting [23]) it was 12200 nM; in test [4] (setting [23]), at least 78100 nM; in test [5] (setting [23]), at least 34300 nM; in test [6] (setting [23]), at least 77900 nM.

In the case of DPRRCMKPV, in test [12] (setting [26]), the Kd amounted to 139 nM.

EIARIVEQM had a Kd in [13] (source organism: Mycobacterium tuberculosis variant bovis) of 194 nM.

ETLPAMCNVY: the Kd was at least 38800 nM in test [1] (setting [24]); 3660 nM in [2] (setting [24]); 4150 nM in [3] (setting [24]); 415 nM in test [4] (setting [24]); at least 70300 nM in [5] (setting [24]); 205 nM in test [6] (setting [24]).

For the sequence FLFFMQGKGI, the figures for the Kd in [14] (setting [27]) and in [15] (setting [27]) were 3.77 nM and at least 45200 nM, respectively.

GYLKPTTFM: the Kd was 2540 nM in test [1] (setting [23]); 6690 nM in test [2] (setting [23]); 538 nM in test [3] (setting [23]); at least 78100 nM in [4] (setting [23]); 12200 nM in test [5] (setting [23]); at least 77900 nM in [6] (setting [23]).

As for ICSSVLKRY, the Kd in test [1] (setting [28]) was 14600 nM; in test [2] (setting [28]), 302 nM; in [3] (setting [28]) it was at least 50600 nM; in test [4] (setting [28]) it was 470 nM; in test [5] (setting [28]) it was 15400 nM; in test [6] (setting [28]) it was at least 77900 nM.

As for IPKNFAGPV, the Kd in test [12] (setting [26]) stood at 6.79 nM; in test [15] (setting [26]), 3100 nM.

In the case of ISMMGFKMNY, the Kd in test [1] (setting [23]) was at least 31000 nM; in test [2] (setting [23]) it was 4.25 nM; in test [3] (setting [23]), 33.4 nM; in test [4] (setting [23]), 422 nM; in test [5] (setting [23]) it was at least 70300 nM; in test [6] (setting [23]), 5450 nM.

Consider KPGTSGSPIV, for which, in test [12] (setting [29]), the Kd worked out at 1080 nM.

Turning to LALLAAFKV, the Kd in [15] (setting [26]) turned out to be 812 nM.

Turning to LIDLQELGKY, the Kd in [1] (setting [23]) is at least 70000 nM; in test [2] (setting [23]), 38.9 nM; in [3] (setting [23]), 2820 nM; in [4] (setting [23]), 116 nM; in test [5] (setting [23]), at least 70300 nM; in test [6] (setting [23]) it was 1020 nM.

LTVTLVWLY: the Kd is at least 20000 nM in test [16] (setting [30]) and 2.7 nM in [13] (setting [30]).

Take NFKHLREFVF: the Kd in test [1] (setting [23]) is 115 nM; in [2] (setting [23]), at least 78900 nM; in test [3] (setting [23]), 16.4 nM; in [4] (setting [23]), at least 70400 nM; in test [5] (setting [23]), 260 nM; in [6] (setting [23]), at least 69700 nM.

Turning to NGDVVAIDY, the Kd was at least 77800 nM in test [1] (setting [23]); 1800 nM in [2] (setting [23]); 825 nM in [3] (setting [23]); 1030 nM in test [4] (setting [23]); at least 77600 nM in test [5] (setting [23]); at least 81500 nM in [6] (setting [23]).

Turning to PYPQPQPQY, the Kd in test [1] (setting [24]) was at least 49400 nM; in test [2] (setting [24]), 639 nM; in test [3] (setting [24]), 230 nM; in [4] (setting [24]), at least 78100 nM; in test [5] (setting [24]) it was at least 237000 nM; in [6] (setting [24]) it was at least 77900 nM.

In the case of QFLYLYALI, the Kd in test [1] (setting [23]) is 0.117 nM; in test [2] (setting [23]), at least 26700 nM; in [3] (setting [23]) it was 64.1 nM; in test [4] (setting [23]), 2320 nM; in test [5] (setting [23]) it was 26.1 nM; in test [6] (setting [23]), 10100 nM.

For QSDTVFDHY, the Kd in [1] (source organism: Variola virus) is at least 77700 nM; in test [2] (source organism: Variola virus) it was 11900 nM; in test [3] (source organism: Variola virus) it was at least 38000 nM; in [4] (source organism: Variola virus), 9.5 nM; in [5] (source organism: Variola virus), at least 77500 nM; in test [6] (source organism: Variola virus), at least 77900 nM.

On to RPRWLDARVY, for which, in test [12] (source organism: Dengue virus 4 Dominica/814669/1981), the Kd was 13.7 nM.

Turning to RPTFAAGLL, the equilibrium dissociation constant (Kd) in test [12] (setting [26]) amounted to 1.09 nM.

In the case of SSQGSEYDY, the Kd is at least 77800 nM in test [1] (setting [23]); 68.9 nM in [2] (setting [23]); 294 nM in test [3] (setting [23]); 576 nM in [4] (setting [23]); at least 77600 nM in test [5] (setting [23]); at least 102000 nM in test [6] (setting [23]).

As to TPSMAMRCVG, the dissociation constant (Kd) in test [12] (setting [29]) is 405 nM.

For TSNPKTPKY, the Kd is 393 nM in test [17]; 1230 nM in [18]; 14300 nM in [19]; 212 nM in test [20]; 4520 nM in test [16] (source organism: SARS-CoV1); at least 77800 nM in test [1] (setting [23]). Further, the Kd in test [2] (setting [23]) was 0.228 nM; in test [3] (setting [23]), 549 nM; in test [5] (setting [23]) it was at least 77600 nM; in test [6] (setting [23]), at least 56400 nM.

As to VWTLMNVITL, the Kd came out at 62.2 nM in [1] (setting [23]); 19400 nM in [2] (setting [23]); 72.1 nM in test [3] (setting [23]); 2720 nM in [4] (setting [23]); 188 nM in test [5] (setting [23]); 1500 nM in test [6] (setting [23]).

As for WPLNEGIMAI, the equilibrium dissociation constant (Kd) in test [15] (setting [29]) stood at 186 nM.

As to YQCGHYTHI, the Kd in [1] (setting [23]) is 312 nM; in test [14] (setting [23]), 14.9 nM; in test [2] (setting [23]), 10900 nM; in test [21] it was 9.23 nM; in test [3] (setting [23]), at least 25000 nM; in [22], 72.1 nM. Besides, the values for the Kd in test [4] (setting [23]), in test [5] (setting [23]) and in test [6] (setting [23]) were at least 20100 nM, 116 nM and 13300 nM, respectively.
